Consider two substances from PMC3660568.

The target in assay [1] is anti-HER2 IgG1 light chain (biosimilar Herceptin). Briefly: non-reducing SDS-PAGE with western blot; crude supernatant of stably transfected CHO DG44 pools at the end of culture, non-reducing conditions; detected with anti-human IgG Fc and anti-human kappa LC antibodies; species assigned by molecular weight.
For assay [2], the target named is anti-HER2 IgG1 heavy chain (biosimilar Herceptin). The assay is described as above.

What is called stoichiometry N is the number of molecules, sites or subunits per partner or assembly. In assay [1], “anti-HER2 IgG1 light chain (biosimilar Herceptin)” returned a stoichiometry N of 2.

On to “anti-HER2 IgG1 heavy chain (biosimilar Herceptin)”, for which the stoichiometry N in assay [2] turned out to be 2.
